# Test results from patent US20240400703A1 (Genmab, published 2024).
# B1: IgG1-CD134-003-FEAL (antibody)
# heavy: EQLKETGGGLVQPGGSLTLSCKASGFDFSSGYMSWVRQAPGKGLEWIGYIDPVFGSTYYASWVNGRFAISSHNAQNTLYLQLNSLTAADTATYFCARDLRAFYSGWGGINLWGPGTLVTVSSASTKGPSVFPLAPSSKSTSGGTAALGCLVKDYFPEPVTVSWNSGALTSGVHTFPAVLQSSGLYSLSSVVTVPSSSLGTQTYICNVNHKPSNTKVDKRVEPKSCDKTHTCPPCPAPEFEGGPSVFLFPPKPKDTLMISRTPEVTCVVVAVSHEDPEVKFNWYVDGVEVHNAKTKPREEQYNSTYRVVSVLTVLHQDWLNGKEYKCKVSNKALPAPIEKTISKAKGQPREPQVYTLPPSREEMTKNQVSLTCLVKGFYPSDIAVEWESNGQPENNYKTTPPVLDSDGSFLLYSKLTVDKSRWQQGNVFSCSVMHEALHNHYTQKSLSLSPG
# light: AAVLTQTPSPVSAAVGGTVTIKCQSSQIVVNNNFLSWYQQKPGQPPKLLIYDASNLASGVPDRFSGSGSGTQFTLTISGVQSDDAATYYCLGGYDDDAENAFGGGTEVVVQRTVAAPSVFIFPPSDEQLKSGTASVVCLLNNFYPREAKVQWKVDNALQSGNSQESVTEQDSKDSTYSLSSTLTLSKADYEKHKVYACEVTHQGLSSPVTKSFNRGEC
# notes: also called IgG1-CD134-003-L234F-L235E-D265A-F405L
# Molecular target: T1, mouse OX40 expressed on ExpiCHO-S cells (mouse, UniProt P47741 20-272)
# T1 construct: full-length entry; also called OX40mm; wild-type mouse OX40
# T1 sequence: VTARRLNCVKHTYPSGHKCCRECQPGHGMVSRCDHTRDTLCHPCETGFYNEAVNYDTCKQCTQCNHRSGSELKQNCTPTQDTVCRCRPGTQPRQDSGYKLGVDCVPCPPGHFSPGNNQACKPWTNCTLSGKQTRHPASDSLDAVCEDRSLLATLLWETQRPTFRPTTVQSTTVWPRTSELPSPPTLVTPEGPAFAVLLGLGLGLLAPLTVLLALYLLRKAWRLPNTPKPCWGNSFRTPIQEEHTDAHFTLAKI
# Test: not described (data not shown)
binder,measurement,value
B1,binding result,no binding
